This is an account of results in article PMC11343034, “CDCA7 is an evolutionarily conserved hemimethylated DNA sensor in eukaryotes”.

The target in one series is T1, hCDCA7 264-371 C339S (Homo sapiens, UniProt Q9BWT1 264-371, C339S).
T1 sequence: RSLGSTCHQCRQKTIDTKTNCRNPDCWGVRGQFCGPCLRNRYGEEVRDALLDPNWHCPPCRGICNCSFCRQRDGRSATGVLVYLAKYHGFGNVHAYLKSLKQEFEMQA
The series can be described thus: EMSA; free DNA preferred over nucleosome; Oligo EMSA: 20 mM Tris-HCl pH 7.5, 150 mM NaCl, 1 mM DTT, 0.05% NP-40, 10% glycerol, 4 C, 0.5 uM DNA; nucleosome EMSA: same with 50 mM NaCl, 0.1 uM nucleosome. As to conditions: protein: recombinant; tags: GST-SUMO removed; blunt. (In EMSA bound probe runs differently from free probe, usually more slowly.)

For a further series, the target named is T2, CDCA7L 322-454 (Homo sapiens, UniProt Q96GN5 322-454).
T2 sequence: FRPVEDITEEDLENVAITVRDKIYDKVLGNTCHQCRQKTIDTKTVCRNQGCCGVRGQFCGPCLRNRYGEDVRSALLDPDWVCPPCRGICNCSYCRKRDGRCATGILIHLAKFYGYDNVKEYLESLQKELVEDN
The series can be described thus: pull-down; egg extract; Oligo EMSA: 20 mM Tris-HCl pH 7.5, 150 mM NaCl, 1 mM DTT, 0.05% NP-40, 10% glycerol, 4 C, 0.5 uM DNA; nucleosome EMSA: same with 50 mM NaCl, 0.1 uM nucleosome. Conditions: protein: ivt; tags: 35S-Met; label: 5' biotin on strand 2; blunt.

A further series has as its target T3, C. gigas CDCA7 homolog (Crassostrea gigas, UniProt A0A8W8IWK5 1-264).
T3 sequence: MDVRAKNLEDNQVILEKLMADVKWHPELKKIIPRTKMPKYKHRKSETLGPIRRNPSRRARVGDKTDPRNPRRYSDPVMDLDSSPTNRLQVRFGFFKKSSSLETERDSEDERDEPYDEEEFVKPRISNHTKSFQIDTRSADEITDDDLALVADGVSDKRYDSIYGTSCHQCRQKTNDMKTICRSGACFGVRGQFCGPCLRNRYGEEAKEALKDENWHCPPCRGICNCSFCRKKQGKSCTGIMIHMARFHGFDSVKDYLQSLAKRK
The series can be described thus: pull-down; boiled extract; Oligo EMSA: 20 mM Tris-HCl pH 7.5, 150 mM NaCl, 1 mM DTT, 0.05% NP-40, 10% glycerol, 4 C, 0.5 uM DNA; nucleosome EMSA: same with 50 mM NaCl, 0.1 uM nucleosome. As to conditions: protein: ivt; tags: 35S-Met; label: 5' biotin on strand 2; blunt.

In series [1] the target is T4, A. thaliana CDCA7 homolog (Arabidopsis thaliana, UniProt Q0WPT6 1-417).
T4 sequence: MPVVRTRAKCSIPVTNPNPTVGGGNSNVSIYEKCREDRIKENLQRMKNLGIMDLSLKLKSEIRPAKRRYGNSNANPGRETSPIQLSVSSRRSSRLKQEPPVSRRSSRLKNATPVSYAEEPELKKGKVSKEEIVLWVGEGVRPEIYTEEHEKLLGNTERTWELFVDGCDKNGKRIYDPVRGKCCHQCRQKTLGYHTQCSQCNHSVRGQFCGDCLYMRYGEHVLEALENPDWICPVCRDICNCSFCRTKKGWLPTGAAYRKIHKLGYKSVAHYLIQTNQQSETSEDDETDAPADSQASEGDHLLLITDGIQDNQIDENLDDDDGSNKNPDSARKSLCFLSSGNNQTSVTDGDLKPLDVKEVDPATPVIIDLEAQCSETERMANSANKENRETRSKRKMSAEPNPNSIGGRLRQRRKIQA
The series is described as above. As to conditions: protein: ivt; tags: 35S-Met; label: 5' biotin on strand 2; blunt.

Series [2] deals with T5, N. vectensis CDCA7 homolog (Nematostella vectensis, UniProt A7SQU1 1-157).
T5 sequence: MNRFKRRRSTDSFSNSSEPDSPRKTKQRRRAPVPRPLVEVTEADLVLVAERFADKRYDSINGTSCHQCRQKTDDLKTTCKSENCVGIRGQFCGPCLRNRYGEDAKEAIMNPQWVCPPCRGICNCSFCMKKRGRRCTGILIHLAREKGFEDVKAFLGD
The series is described as above. As to conditions: protein: ivt; tags: 35S-Met; label: 5' biotin on strand 2; blunt.

Numbering of substitutions follows the chain as printed.

B1: -62W free DNA (dsDNA)
DNA 1: ATCAGAATCCCGGTGCCGAGGCCGCTCAATTGGTCGTAGACAGCTCTAGCACCGCTTAAACGCACGTACGCGCTGTCCCCCGCGTTTTAACCGCCAAGGGGATTACTCCCTAGTCTCCAGGCACGTGTCAGATATATACATCGAT
DNA 2: ATCGATGTATATATCTGACACGTGCCTGGAGACTAGGGAGTAATCCCCTTGGCGGTTAAAACGCGGGGGACAGCGCGTACGTGCGTTTAAGCGGTGCTAGAGCTGTCTACGACCAATTGAGCGGCCTCGGCACCGGGATTCTGAT
modifications: 5mC at 11 of strand 1
Take B1: the binding result with hCDCA7 264-371 C339S is “binds”.

B2: -64C free DNA (dsDNA)
DNA 1: B1 DNA 1 with A136C, T137G
DNA 2: B1 DNA 2 with A9C, T10G
modifications: 5mC at 9 of strand 2
B2: the binding result with hCDCA7 264-371 C339S was “binds”.

B3: 54-bp hemi-Me (F) (dsDNA)
DNA 1: GCGGGTGATGGACCCTATACGCGGCCGCCCTGGAGAATCCCGGTGCCGCGGCCG
DNA 2: CGGCCGCGGCACCGGGATTCTCCAGGGCGGCCGCGTATAGGGTCCATCACCCGC
modifications: 5mC at 41,47,49,53 of strand 1
For the molecule B3, the binding result (with CDCA7L 322-454; in the series with C. gigas CDCA7 homolog; in series [1]; in series [2]) was “binds” throughout.
